# In US20250312438A1 (published 2025):
# Where two headings read alike, the source gives them in different places.
# Legend:
# BJAB cells = BJAB cells (human, UniProt P01903 26-254); assay: flow
# [1] = target: T1, recombinant HLA-DR (DRA*01:01/DRB1*04:01) with covalently attached Influenza Hemagglutinin (HA) peptide (human;Influenza); assay: BLI
# [2] = target: T1, recombinant HLA-DR …; assay: BLI; remark: listed apart in the source
# [3] = target: HLA-DRA*01:01 W168R / HLA-DRB1*04:01 F31V/H33N; assay: BLI
# [4] = target: HLA-DRA*01:01 No mut. / HLA-DRB1*04:01 F31V/H33N; assay: BLI
# [5] = target: HLA-DRA*01:01 W168R / HLA-DRB1*04:01 No mut.; assay: BLI
# [6] = target: HLA-DRA*01:01 W168R / HLA-DRB1*04:01 F31I/H33N; assay: BLI
# [7] = target: HLA-DRA*01:01 No mut. / HLA-DRB1*04:01 F31I/H33N; assay: BLI
# [8] = target: T1, recombinant HLA-DR …; assay: BLI; remark: listed apart in the source
# Sequence of BJAB cells (P01903 whole entry): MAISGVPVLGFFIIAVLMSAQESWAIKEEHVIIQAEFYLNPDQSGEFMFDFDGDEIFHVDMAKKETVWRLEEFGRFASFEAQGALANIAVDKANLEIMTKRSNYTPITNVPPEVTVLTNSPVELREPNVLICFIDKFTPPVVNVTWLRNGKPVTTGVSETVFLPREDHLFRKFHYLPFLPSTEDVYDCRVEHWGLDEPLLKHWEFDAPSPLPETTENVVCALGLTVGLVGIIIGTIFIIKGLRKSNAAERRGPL
binder,measurement,setting,value
"V17 (antibody, V domains shown) VH: QVTLKESGPVLVKPTETLTLTCTVSGFSLTSYGVHWIRQPPGKALEWLAVIWAGGSISYSTSLMSRLTISKDTSKSQVVLTMTNMDPVDTATYYCARAYGDYVHYAMDYWGQGTLVTVSS VL: DIQMTQSPSSLSASVGDRVTITCRASQEISGYLTWLQQKPGKAPKLLIYAASTLDSGVPSRFSGSGSGTDFTLTISSLQPEDFATYYCLQYTNYPLTFGQGTKLEIK",EC50,BJAB cells,5.02 µg/mL
"humanized 44H10 variant V21 (antibody, V domains shown) VH: QVTLKESGPVLVKPTETLTLTCTVSGFSLTSYGVHWIRQPPGKALEWLAVIWAGGSISYSTSLMSRLTISKDTSKSQVVLTMTNMDPVDTATYYCARAYGDYVHYAMDYWGQGTLVTVSS VL: DIQMTQSPSSLSASVGDRVTITCRASQEISGYLTWLQQKPGKAPKLLIYAASTLDSGVPKRFSGSRSGTDFTLTISSLQPEDFATYYCLQYTNYPLTFGQGTKLEIK",Kd,[1],221 nM
same,Kd,[2],157 nM
"V20 (K60 back-mutation) (antibody, V domains shown) VH: QVTLKESGPVLVKPTETLTLTCTVSGFSLTSYGVHWIRQPPGKALEWLAVIWAGGSISYSTSLMSRLTISKDTSKSQVVLTMTNMDPVDTATYYCARAYGDYVHYAMDYWGQGTLVTVSS VL: DIQMTQSPSSLSASVGDRVTITCRASQEISGYLTWLQQKPGKAPKLLIYAASTLDSGVPKRFSGSGSGTDFTLTISSLQPEDFATYYCLQYTNYPLTFGQGTKLEIK",EC50,BJAB cells,2.21 µg/mL
"V14 with the V71K and F78V mutations in the VH (antibody, V domains shown) VH: QVQLQESGPGLVKPSETLSLTCTVSGFSLTSYGVHWIRQPPGKGLEWIGVIWAGGSINYNSALMSRVTISKDTSKNQVSLKLSSVTAADTAVYYCARAYGDYVHYAMDYWGQGTLVTVSS VL: DIQMTQSPSSLSASVGDRVTITCRASQEISGYLTWLQQKPGKAPKLLIYAASTLDSGVPSRFSGSGSGTDFTLTISSLQPEDFATYYCLQYTNYPLTFGQGTKLEIK",Kd,[2],206 nM
"V19 (R66 back-mutation) (antibody, V domains shown) VH: QVTLKESGPVLVKPTETLTLTCTVSGFSLTSYGVHWIRQPPGKALEWLAVIWAGGSISYSTSLMSRLTISKDTSKSQVVLTMTNMDPVDTATYYCARAYGDYVHYAMDYWGQGTLVTVSS VL: DIQMTQSPSSLSASVGDRVTITCRASQEISGYLTWLQQKPGKAPKLLIYAASTLDSGVPSRFSGSRSGTDFTLTISSLQPEDFATYYCLQYTNYPLTFGQGTKLEIK",EC50,BJAB cells,2.02 µg/mL
"44H10 (antibody, V domains shown) VH: QVQLKESGPGLVAPSQSLSITCTVSGFSLTSYGVHWVRQPPGKGLEWLGVIWAGGSINYNSALMSRLSISKDNFKSQVFLKMSSLQTDDTAMYYCARAYGDYVHYAMDYWGQGTSVTASS VL: DIQMTQSPSSLSASLGQRVSLTCRASQEISGYLTWLQQKPDGTIKRLVYAASTLDSGVPKRFSGSRSGSDYSLTISSLESEDFADYYCLQYTNYPLTFGAGTKLELKR",Kd,[3],0.2 nM
same,Kd,[4],0.4 nM
same,Kd,[5],2.8 nM
same,Kd,[6],0.2 nM
same,Kd,[7],0.5 nM
"chimeric human IgG1 anti-HLA-DR 44H10 antibody (antibody, V domains shown) VH: QVQLKESGPGLVAPSQSLSITCTVSGFSLTSYGVHWVRQPPGKGLEWLGVIWAGGSINYNSALMSRLSISKDNFKSQVFLKMSSLQTDDTAMYYCARAYGDYVHYAMDYWGQGTSVTASS VL: DIQMTQSPSSLSASLGQRVSLTCRASQEISGYLTWLQQKPDGTIKRLVYAASTLDSGVPKRFSGSRSGSDYSLTISSLESEDFADYYCLQYTNYPLTFGAGTKLELKR",Kd,[1],199 nM
same,Kd,[8],1.5 nM
